test: soluble on expression in E. coli; label from the status in PepcDB or PDB records

Sequence | soluble on expression in E. coli
MGSDKIHHHHHHMSMNISGLGNAYSGVNTNSKQYKALKEKGWLEGVIQNEAMMSPEGKMIYEIFGGRDTIVNNLMKQFDSDGDLLNANGVAGMDVTGKGTSWQKLTNVSEEYRQKMFDNVKKEFIQENGVSNGDTTKRSDIFKDYQLSVNKDKRLSGTWTLEQYEGQYRSAMYAAVKAANPNWKPGQKFDTSILDNVTRESAEATLVKNGNRLVRNSIDVSV | not soluble
MTSTSTPPGLARFNDLGEHAALAALHEACASTTWARRLIAARPYATADDLYTASDAAMAELTAADLAQAMAGHPPIGRPKPGDPTSAREQRGMAGASEELKADMLELNLAYQEKFGHVFLICATGRTGEQMRDAVRERIGNAPEREREIVRTELGKINRIRLARLVEEDAHALEHHHHHH | soluble
MSLASVWKRLQRVGKHASKFQFVASYQELMVECTKKWQPDKLVVVWTRRSRRKSSKAHSWQPGIKNPYRGVVVWPVPENIEITVTLFKDPHAEEFEDKEWTFVIENESPSGRRKALATSSINMKQYASPMPTQTDVKLKFKPLSKKVVSATLQFSLSCIFLREGKATDEDMQSLASLMSMKQADIGNLDDFEEDNEDDDENRVNQEEKAAKITEGHHHHHH | not soluble
MGSDKIHHHHHHYAVQPKDDKKENEALQTSTEEHLPLLTINGTNASSSFIVNSEALLGKEITITAPNGFTVTPTVIAANSGKQKVKVTLNSTKRLTEGKIILRSGDVRSYLKVKGYGTALPVKDIAASPAYKKGNDKEFTKAFTPNSKGYTIEFKIKTDDSEKSFYPYFVNEKGYGFKAYITSNEIGLFNAYKKEITNPATNGKAGGKGKFYNNDGQAHIYRFAITPDNRAFIYRDGIPVDSVRIIDYAPQPNFAEKVGKPVENLLKNPNFEGEFDINPETKLVSRVEGWDVVISDRWNSEQQILPEEIDNNQDLDNHVFEIRPYKWAAGWSDGILMQVVDVVPNENYTLSALLKGGIAKKEGKLTGKMIIEEVQDPEKKVITEIASDNWETYSMDYTTSAECNQIRVSFTVGRGGWGNDIGAVRVDNAKLTGTSRTYSPKFGFIDNTADVEYFTIDESGAYAPAQPEITINIED | not soluble
MTVKSQQQIIDSFKQANQDQLFQYYDSLTIDQQQEFIDQLSTIEEPAKLISTVEQAIQFSQTNSTSRNFTQLPNEQTASTLDLSKDILQNWTELGLKAIGNGEVAVLLMAGGQGTRLGSSAPKGCFNIELPSQKSLFQIQAEKILKIEQLAQQYLKSTKKPIINWYIMTSGPTRNATESFFIENNYFGLNSHQVIFFNQGTLPCFNLQGNKILLELKNSICQSPDGNGGLYKALKDNGILDDLNSKGIKHIHMYCVDNCLVKVADPIFIGFAIAKKFDLATKVVRKRDANESVGLIVLDQDNQKPCVIEYSEISQELANKKDPQDSSKLFLRAANIVNHYYSVEFLNKMIPKWISSQKYLPFHIAKKKIPSLNLENGEFYKPTEPNGIKLEQFIFDVFPSVELNKFGCLEVDRLDEFSPLKNADGAKNDTPTTCRNHYLERSSKWVIQNGGVIDNQGLVEVDSKTSYGGEGLEFVNGKHFKNGDII | soluble
MGSDKIHHHHHHMSFTSLPLTEINHKLPARNIIESQWITLQLTLFAQEQQAKRVSHAIVSSAYRKAEKIIRDAYRYQREQKVEQQQELACLRKNTLEKMEVEWLEQHVKHLQDDENQFRSLVDHAAHHIKNSIEQVLLAWFDQQSVDSVMCHRLARQATAMAEEGALYLRIHPEKEALMRETFGKRFTLIIEPGFSPDQAELSSTRYAVEFSLSRHFNALLKWLRNGEDKRGSDEY | not soluble
MSLNWMELSIVVNHEVEYDVTEILESYGSNGVVIEDSNILEEQPVDKFGEIYDLNPEDYPEKGVRLKAYFNEFTYNENLKSNINYEILSLQQIDKTIYDYQEKLIAEVDWENEWKNYFHPFRASKQFTIVPSWESYVKENDNELCIELDPGMAFGTGDHPTTSMCLKAIETFVKPTDSVIDVGTGSGILSIASHLLGVQRIKALDIDEMAVNVAKENFKKNHCDDAIEAVPGNLLKNENEKFNIVIANILAHIIEEMIEDTYNTLIEDGYFITSGIIEEKYQDIESQMKRIGFKIISVEHDNGWVCIVGQKVSEGHHHHHH | soluble
MTEHSLWRFSRALHRALNDRQTEELATIIDDNIDWAIYGPIDMFPFFGARQGKAAVLEVCRQIADSVRIYRYHRESVMLGIDSAASMVRYSLTAAGTNRPISVRMALFTQFQNGRLTNLRMVLDTFDLVEQALGRPIHLPKIA | soluble

— the DeepSol protein solubility set
